test: soluble on expression in E. coli; label from the status in PepcDB or PDB records

| Sequence | soluble on expression in E. coli |
| --- | --- |
| MGSDKIHHHHHHMLFYLPVTGQNTAVYPDQFGAYFNNMHLVTPSYFPKDVKVNLSLSYKSRTGALNKISTFNVAFTRVFNHTKPTNHLIRIYFYNEKDGPYIHRPRAYINYGYKIALSKQVNIAAGAAFGFAQTAFTAPSSTANGNSISPDASIGLSLQVKNFEAGFSVCQLLNSEVNPVVAPIIYRRYYNTYLSYHADLSPFIKLKSGMLWRALPTYDDDLNIYSMLEYKETISFGGCYRYNKNFSFVVSTNIHIGKESILLSFVYNTPFFTKLPAWTDSVELNGGYNFY | not soluble |
| MSLSPEDLEATGARLVEELVEYRTRTQVSTAVIGMSGGVDSALTAALFKAAGWHVMGHTLPIEQDPTETDRGIEACAALGIEHRPLDLSGAYEAALAQLGELDPDLLSSDETPARTRRGNLRARLRMMTLYDQAHRLGGLVAGTDNFSELTAGFWTLHGDVGDLAPVQSLLKSWEVPWLARAYRVPEATWRAMPTDGLGIGGGDEAQIGATYLEWDILQFALAEALGDDPGLATRHLAFALRMDADRHAQEVLGTLIARMRATWHKRLNEGHHHHHH | not soluble |
| MKGDVSPIFSPKHLQFKRPTLWRYGRIQKISIMSSKRSSPTGKLRLLSFLRDLLEDESNSDIIYWFDKSESVFKMSKPHKVAELWGAATGNPGMNYDKMSRGLRYFYTNNTLEKVPGKDARYRFIDSPRHSFLDFSMKTELETPVKRTPLFNISNLISDFEVSNNSLTSSPTSSASSVEPSSPTTTESSLDPSQFVQLTQNLVQFNTFMSQNPMFHTLPLPTQLQVFFNFKTIFPSLFPALV | not soluble |
| MIKLFTDSDLDGIGCGLLAKLAFAEVNISFCSYRNLDERVVQFLQSDEANGAMLFITDLAVGKEVEQQLAERAARGGHVQVIDHHVTALHFNDYPWGQVVPVRDDGKKTCATSLFYDYLVREGKLAPNETLDGFVELVRQYDTWEWEENGNLQAKRLNDLLTIFGLDGFWETMSERLASREPFSLTETEELLLDMEEKKIQRYIRQKQKQLVQRWLGDYCIGVVFAERHLSELGNALSKRYPHLDLIALVNMGTKHIGFRTIHDDVNVAEFAQQFGGGGHPKASGCLIDDTTFPLFVVETFPLLPVYGDAEQNQLNKKDEAEGVFWTNHHGQWWLSRKTAQGWSVYADGGETHTFPEEIAGERWLKRQFAAGLAHDAAVLDFLSVRLGRDKDAIQADYKAAVKQYKQQTGIES | not soluble |
| MSDSDLKEIEKNAENIKLEPAEDEVNEEDQNEITIPELPEGRVLELRLLSNWGDSHYIGLNSVEIFTSTGERAVIDKIATNVTEYTGSLESLIVQRVHCKDAEKMWCAKTTEEKIVLTLELKETCKLALIRFWNYNASRVHAQIGVRYLEMYLDGVGIFRGELECAFSADSEFTPVMGETVLFTTSDNILELIALHDVCLISLPEEPISNSSIEMLKADHLTPYRPSTCEAKDAPSTPVTIVPPPIFRQTGTAYKHDVKTLHIELLSNWGMDGLIGLTGLELVDEHSQLIDESQYTVTTSDGNSDLSKKLFNGRNLTRDPHDMWLVDFDSKNFTTISITFHDNVALKAISVWNYNASFELSYAGVKAAKIYINGKLIKNVLLRKATGFVYFDYVQDVVLDPNNTERDFVPKGISQSIGGFVFQIRLLSTWGDEFYIGLNGIELYNRKGELMKIREHNLAAFPESVNILPNIKNDLRTSNNLITQPNDTDIARNMWLTALLPNRCARVFFVFDVQTYISKIVIYNYRKTPERGVRHISVTVDDLIIFSGEIPSSTATLTGNLEINLMDI | not soluble |
| YDFIDNPGFDESHSLTEMREAFLSFFEDRDHERIDPYPVAANRWRDDVLLTQASIYDFQPLVTSGTTPPPANPLCISQPCIRMQDIDNVGKTGRHTMAFEMMAHHAFNAREDIEDPEQYAYEGEVYWKNETVQYCDELFEEMGANLDEIVYIEDPWVGGGNAGPAIEVIYRGAELATLVFMSMEQDSDGEYEMKDGNRYSPMDTYIVDTGYGLERWTWMSQGTPTVYEAVYPDMIAFLKDNAGIELTDEEERIVHEAAKLAGRMDI | not soluble |
| MVHNFRNDITVDWCPGCGDFGILTALTSALSELNLGSHDVAIISGIGCSGKTPHYVNAAGAHTLHGRAIPVAVGVKLTNPHLKVIVTGGDGDLMSIGAGHLVAEGRRNSGITVLMYDNAVYGLTKGQAAPTLKLGVQTKSLARPNIYDAINPIMLAISSGYSFVARGFSFEIAHLKNIIKQAIMFPGSSFIDILQPCPTYNNINTMDWYKKRVYKLDDDKSWDPVITENDPKAEEKYNKAIEKSFEWGDKIPIGVFYVNKKVPPFTERLKQYVDNYEQIPPAVQDVSTEDGKPILDPFETFKDKI | not soluble |
| MAHHHHHHMNNSSAVATGDNPQLQKPMIYKNRARSIVHRSVRNGSENQLTEQANGTSIRDKIRRLFSSKHDQTIRDMQKTKLTKNKSIQEQEPSERNVDGFLSTDHQSVEWQPVYRETCKIKLPVEEGATKIAMPEEVLDDWVHSQHKISQQLGRRKGGEFVQDNQSLGDHDQGDDLLELGGDCLLGKNASRKSCNLKSTEDQYSKFKYYYNYYLVDEYLESLAASPNKELDATGLDEHGQLYDNVSLNARPIIVSKQRLESGVPYDPSKLLQ | not soluble |
| GHMLWARLVGLARLEARALSKKERRSLLERLKPYYTRIPFSEKADLRLVKARTDSGEYEIITVDGVPCLFEWSDGRIYPTLQCLKAFGVDWLKGVVLVDKGAAIALAKGAHLMIPGVVGVEGSFTRGDVVAALYHETRTPVMVGVAEVDSSALEKLYREKARGRAVRRVHRLGDALWELAQEVGKRLSGS | soluble |
| MSLNEIDKSVDIGFLRILDVIKKVKTPKGGIEVLRTLIDFTPKIENALNLATKSHKGQYRKSGEPYIVHPICVASVVAFCGGDEAMVCAALLHDVVEDTPCEIETIEREFGQDVANLVDALTKITEIRKEELGVSSQDPRMVVSALTFRKILISAIQDPRALVVKISDRLHNMLTLDALPHDKQVRISKETLAVYAPIASRLGMSSIKNELEDKSFYYIYPEEYKNIKEYLHKNKQSLLLKLNAFASKLEKKLFDSGFSHSDFKLVTRVKRPYSIYLKMQRKGAVNIDEILDLLAIRILLKNPIDCYKVLGIIHLNFKPIVSRFKDYIALPKENGYKTIHTTIFDESSVYEVQIRTFDMHMGAEYGNSAHWKYKAGGVDHEEHHEGMRWLQNFKYHDSDLKNDPKEFYELAKNDLYREDIVVFSPHGDTYTLPVGAIALDFAYMVHSDLGDKATDAYINSKKALLNQELRSGDVVKIIKGDKVIPRFIWMDQLKTSKAKNHLRIQRRNRLKEIDTKSMINILATFFGRSVFEDADLKDYKNFEEKLTDCGVETTLTEAMKSFENLAKLTEEIENKVFSLKEDAILEYQEMSLWTRGLRYLGFKTNVLNFLTPNRQWQCKELEHFSVCSSNALEIKQVLLNDCCYPKYGDEIIAIVTDLKDPKAIAHHKFCKKAIAEVDAKVPMVYIEWHKRDRTIYKMMFYLGEKKSVLASLLTFLNRNECNIVGVSYLGYKDKYSSHCEVSFEIATDKADWMRALINRKYQDRIVELSSLDDAYELQEGHHHHHH | soluble |
| MNLEGLEMIAVLIVIVLFVKLLEQFGLIEAGLEDSVEDELEMATVRHRPEALELLEAQSKFTKKELQILYRGFKNECPSGVVNEETFKEIYSQFFPQGDSTTYAHFLFNAFDTDHNGAVSFEDFIKGLSILLRGTVQEKLNWAFNLYDINKDGYITKEEMLDIMKAIYDMMGKCTYPVLKEDAPRQHVETFFQKMDKNKDGVVTIDEFIESCQKDENIMRSMQLFENVI | soluble |
| MSLHEYELNQDLLAENKRLAEKNREALRESGTVAVNIMGAIGSGKTLLIERTIERIGNEVKIGAMLGDVVSKADYERVRRFGIKAEAISTGKECHLDAHMIYHRLKKFSDCDLLLIENVGNLICPVDFDLGENYRVVMVSVTEGDDVVEKHPEIFRVADLIVINKVALAEAVGADVEKMKADAKLINPRAKIIEMDLKTGKGFEEWIDFLRGILNVHSDSGQNEGGSHHHHHH | soluble |
| MTEKKIDFKKEEKKFYAPKRKPERIFVPEMNFLMVDGKGDPDGEEYQKAVQSLYAIAYTIKMSKMGETRLDGYSDFVVPPLEGFWWSEGKFDLKDRDAWLWTSILRQPDFVTEEVLEWAKEVARKKKPDVDTSRVKLVRFEEGECVQMMHVGPFSEEVHTVAEMHQFMETEGLRNDTGAIRKHHEIYLSDPRKANPEKMKTILRLPVS | soluble |
| PMVTAATSLRRALENPDSFIVAPGVYDGLSARVALSAGFDALYMTGAGTAASVHGQADLGICTLNDMRANAEMISNISPSTPVIADADTGYGGPIMVARTTEQYSRSGVAAFHIEDQVQTKRCGHLAGKILVDTDTYVTRIRAAVQARQRIGSDIVVIARTDSLQTHGYEESVARLRAARDAGADVGFLEGITSREMARQVIQDLAGWPLLLNMVEHGATPSISAAEAKEMGFRIIIFPFAALGPAVAAMREAMEKLKRDGIPGLDKEMTPQMLFRVCGLDESMKVDAQAGGAAFDGGVDLK | soluble |
| MPSDIPKTRLETEGTTQHTSPLRATCHRVFSLNAGRKAGEQYHLFCTSKSDNSTCLDGPARVVLRDILDNLYNRISSMPRANEIKKGMVLNYNGKLLIVKDIDIQSPTARGAATLYKMRFSDVRTGLKVEERFKGDDIVDTVTLSRRGVDFSYVDGNEYVFMDKEDYTPYTFTKDQIEEELLFMPEGGMPDMQVLTWDGQLLALELPQTVDLEIVETAPGIKGASASARNKPATLSTGLVIQVPEYLSAGEKIRIHIEERRYMGRAD | not soluble |
| MHHHHHHSSGVDLGTENLYFQSMIAKSFYDLSAINLDGEKVDFNTFRGRAVLIENVASLCGTTTRDFTQLNELQCRFPRRLVVLGFPCNQFGHQENCQNEEILNSLKYVRPGGGYQPTFTLVQKCEVNGQNEHPVFAYLKDKLPYPYDDPFSLMTDPKLIIWSPVRRSDVAWNFEKFLIGPEGEPFRRYSRTFPTINIEPDIKRLLKV | soluble |
| SLSTIGSMMSIYSEAGDFGNIFVTGRIAFSLKYEQQTQSLVVHVKECHQLAYADEAKKRSNPYVKTYLLPDKSRQGKRKTSIKRDTVNPLYDETLRYEIPESLLAQRTLQFSVWHHGRFGRNTFLGEAEIQMDSWKLDKKLDHCLPLHGKISAESPTGLPSHKGELVVSLKYIPASKTPVGGDRKKSKGGEGGELQVWIKEAKNLTAAKAGGTSDSFVKGYLLPMRNKASKRKTPVMKKTLNPHYNHTFVYNGVRLEDLQHMCLELTVWDREPLASNDFLGGVRLGVGTGISNGEVVDWMDSTGEEVSLWQKMRQYPGSWAEGTLQLRSSMAKQKLG | soluble |
| RSLVSVHNEWDPLEEVIVGTAVGARVPTADRSVFAVEYAGDYESQEQIPSGAYPDRVLKETEEELHVLAAELTKLGVTVRRPGPRDHSALIKTPDWETDGFHDYCPRDGLLSVGQTIIETPMALRSRFLESLAYKDLLLEYFASGSRWLSAPKPRLTDDSYAPQAPAGERLTDEEPVFDAANVLRFGTDLLYLVSDSGNELGAKWLQSAVGDTYTVHPCRKLYASTHVDSTIVPLRPGLVLTNPSRVNDENMPDFLRSWENITCPELVDIGFTGDKPHCSVWIGMNLLVVRPDLAVVDRRQTALIRLLEKHGMNVLPLQLTHSRTLGGGFHCATLDVRRTGALETYQF | soluble |
| MNIVLMGLPGAGKGTQAERIVEKYGIPHISTGDMFRAAMKEETPLGLEAKSYIDKGELVPDEVTIGIVRERLSKSDCERGFLLDGFPRTVAQAEALEEILEEMGRPIDYVINIQVDKEELMERLTGRRICSVCGTTYHLVFNPPKTPGICDKDGGELYQRADDNEETVTKRLEVNMKQTAPLLAFYDSKEVLVNVNGQQDIQDVFADVKVILGGLKQ | soluble |
| MGSDKIHHHHHHMIAGVPSVHPLPNMNHVEVKGVDLPAQIAQQVRKLINRGTLAPGLQLRQSDLADRFGISRVPVREALKLLAAEGIIEHDPNRGFFVAPLSTDEARQLYRYRFLLERELLKTVEWPDSTQMKALKAMLERLDSYLDSGQRAEWIDEYQDFYALLFDLSPDKILRREAIRLIRLTDRYRALASEVRVPGEQRTAHLEHTLLAAMSKRDRAQLIRGFEREREKILASMLARIDARGL | not soluble |
